# Measured values from the supplement of paper PMC12636428.
# Tested on: Saccharomyces cerevisiae
# Assay: transcriptional activation domain activity (GFP:mCherry ratio, weighted mean of sorted bins, harmonized to initial dataset scale) (arbitrary fluorescence ratio units); higher = stronger transcriptional activation
# Conditions: beta-estradiol 1 µM; induction time 4 h
# Protocol: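 53-aa protein tiles (fungal proteins plus yeast TF control tiles) fused C-terminally to a DBD-estrogen-binding domain-mCherry synthetic TF, integrated in S. cerevisiae (URA3 locus) with a GFP reporter. Cells were induced with 1 uM beta-estradiol for 4 h at 30 C, FACS-sorted into 8 bins by GFP:mCherry ratio and barcodes sequenced. Activity is the read-weighted mean bin fluorescence (GFP:mCherry), averaged over barcodes (median 12); tiles under 50 reads were discarded. New active-learning values were harmonized by linear fit onto the scale of the initial (Hummel et al.) dataset. The assay saturates at low and high signal.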
row,Sequence,transcriptional activation domain activity
1,SVSRDRGAFEWAGDNLMTVFCQPYRLVDPEMWCLLYDVLRFNACCRSIIATPY,63900
2,EAPAAEPVKETETAAEAAPAEAPAEAAAEETKEEKKEEKKEEKVKASKVGRRL,44900
3,MMHLSIRDEQKVSLCLTIYLFIFFFFFLILFLWLEGVYLFFLLMTFFLRPYSS,43800
4,LLCILLLVYFIYVALFLVSINTGVTLSGLNIQMSSKYSVYYLLIYHVFGFFWL,58900
5,FYSRVASSTLLFFWLTSLISNGIIIRTNYLLDQHHSRLLLFALLVVQELLCVL,68600
6,VVNVLLSVFNGYDTGKSGIRCNPLPNSFIPLIMTAMLLSMLTFLLVTTIACYV,38300
7,RRRLNYISTRGLPHFFVLLFLIGLLILIVAMRVCLHILSKSSPLFFFLLILGC,38500
8,VLQILAFAMFIICTLTLQLRLRSNPPVQCVAGVVTHYRRYFIALYCTSGLFLI,56600
9,AKSLRLTIDEVKMLHRPVIWYLIVMLVDTLTATYLQYNGFLLHRTHLRETLSV,44200
10,SQLYFNVYPNELDERFSLFDPTYSLQWLFEHLFTTRVVELTRMLCFVMCIFVL,37700
11,SAASRVAEEKSGDDEAAAAPGTGATPEGVKRKTTRGGKKNRSKKEGGAAAAAA,< 6570
12,INSTIHNLLEVVLLPDLCGFCCFSMRFVVLLDLIGTLTLPVSAVYLVYLIYVI,59000
13,KKEAAAAKKEPAKRKKTKADEEDKESAEGTESDEESKPKKKKAAPKKKGAATA,20600
14,SNHNNDNDNSNNGDGNNNNTISELVCFDESIADLYPVEIDSPYLITLAYLDKL,71900
15,TSQCSISLYHYLIMYHMTLLGVATSVLALVLVCNPAEFLISSSVRLGFIWFCI,73700
16,VKAAAPKRGGRKKKVEAKAEAGDEVEAAVFEKKEVEEEEKEKGGEKEVKETVE,9930
17,KTIWRDVKEGGECSVEEMCLSYYRSEGWKGYHSEGGILKTLFAYLFYDIMFLY,65700
18,AQLLQRTWLIHWSLFVFFNHPRGRDYIVDLLFQPNYINSIQMACPWILRYLTA,45100
19,MPGTCTLPYYSNLPIMLVLVLIRRSNYFFFLVSLTTGSFLTTFFSLFSVRLPL,67000
20,DAAAEKSGNDVSEKSSGPRAKRRKVDPELDTVDEEPKKQRSKKRVKVSVPNGI,45800
21,STACILLILVRYLGLIALVLNIIGFFSHEFTMESCQYYWRFMPIMQCFASWAS,61800
22,GLRNERHFVLFMAYFVLSCWCFCTLGYSYMYLSLDFTQDWPHWPGRTPFILIY,54000
23,MQVISYIFFCHVKYLFFVYSLHVVSNTNLSSYMLFNWLYLILLRLFVYIIYFI,71300
24,TTTTAADDADTDSKKEKEKEQAAVKVKVKEKEKEKRVLVHCCMGRSRSGAVVV,20200
25,SIRVILLNLGLSNGLETIPYGLISIIYQSKYQSFAYTLLFFSNLFTYSLWYVV,61200
26,SKSRSSSSSSSSSSSSSSSSSSSESEKSHSKHKSKSKSKSKARKSKSKSKHRG,18100
27,TATARVRAVGENQKLEIVLGESDGTEEECQCGRRNKNANVKKYVQGVRAGIHY,35000

row,Sequence,transcriptional activation domain activity
1,MRRFSLFFSLSSLCLWLYVCWIGWIDGFLLVDVMVHLQHVYCVLTILIFLFSL,22300
2,PRHIQTIDEKLINDSNYLAFLKFDDLENEKFHSSASSISSPSYSSPSFSSYRN,82100
3,AAAAAAAEGDGEGKGKEDGEDKEKEGGNGEAEAEAGAEGKKAAAGAAQKESSN,35100
4,MHCIVVSCSLFLWFVFCKYLIYFKNAFTDISVFLGFLFGWFLSLLFHLSIVFG,48500
5,MPNCLNIRFFLFFLLKFLYAPLSFLLFPYPSHAYLFFHVLLLINCLFVDVIPV,54600
6,EIGPDGEVKKKYDPKDPMRPRRKKARRACFACQRAHLTCGDERPCQRCIKRGL,53300
7,LLQLWYMHKSLVLADPTLVCPLAFCFYNLSSIINGLVYFDQFAFLSTLHLLLV,25400
8,RFISLAFFDVVSCSVWLSIYHLLVLRFFLDLQSCLSFLLLYIRPSFPCLLIPR,50500
9,MLHAGVSNKIAKGWPKEGSCDRASFVHEGVLMMCQRSLVTFIVRSLLLMCYYF,36800
10,DNTPVLQEYLAVFRHLLSFHDPELSSHLDTIGFMPDLYAIPWFLTLFTHVFPL,64500
11,IMGLVFRRARRRTVSLVTKYLITETEVVITYIPAVAVAIFPQLNWIYWMIFYP,65800
12,GVCLKVGITRPKKPNSGERKTARVRLSSGRMITAYVPGEGHNIQQHSVVLVRG,51900
13,VNSHGYKHISNLDELDDLLSLTYSDNNLLSASNNSDFNNSNNGIINTADTQNS,106000
14,MRCLRSVLGVFFLSYSLYILHCIFCLISYPLAISFMNLSCLGWFHGFWGFIYF,36000
15,KWVLSILEFFVVHGFFSVTRKNAKSSLQAIHHVPNPKFSDTMKQRCRDRLFTC,51700
16,VQALASGDFDAGDGGRTTRPLFRKQKGASLFFVTSVCDTVCLAWTVVVHGHRQ,20600
17,GDEDEEDTAELKEEALKGLIAVLVCASVLSIVRALMHSQLDLSILELLVDNMT,53600
18,CVCVGVGIGVGGLVLPLLFFLSFTSFSSLVTFLFSLSFPFSFFLFFLSFFLGL,46000
19,PVLEQKRCIRAMEEMIILCKEYIRIARPQISACLISALSFDELRATAFSCWVA,48700
20,MANVRFFVGLQRLFPFLAFHHLLMLCHIIVIILLSILLAGCSSYSSMINVYIL,70400
21,MRIIIFMSLLLLKIIMILLLLLLRIKFNWFSFFSILKMLLSMKIMMLFLFLLL,35900
22,CCQSNSLLNMENYLVPYDNFREVVDSRLQEESHSNGVDNSNSNSDNKDSIRPK,24200
23,MCSIFLVFIVPPNPLSYLISFAFFFLFSFYLWCLLRRGLSYFALYAYLKYALL,43700
24,MLNLVILAFVIVFSTFLIGCVDYAAIPTHHALSEVMLPHCYARLSPSTVLFLL,39700
25,KVNTNNDVNENNDLWNSYLQSMDDTTGKNSGNYQQVDNDDNMSLLNLPILEET,90400
26,FIVLYLSHRQLIIVNPCYLLGHHACSLLCLLILHNFHIWLSYVGTVLFCFCFS,78400
27,YEHSFEIWLACTVVFPGAGNIGFTLLEYRLGHRSLASSFFENITWIPFFFFFF,53900

row,Sequence,transcriptional activation domain activity
1,DPQTLSVAHRSYLRCLTQRLLLTQPTFTECMYNLLIHTDHLVALIHRLDGVWS,38400
2,TGRLQFKWAFVPYILARFVLLGQLLALTLVLRNLQTLIHCGKVLRWLTIVSNV,60000
3,LPLIQRFLIIAPAVIFYSYVYIVPTARRLQLRVCIRNWLGRWYVHLPVLSRSH,57400
4,FLSYFSGWLTVIAWQCLVASASYVSGTLLQGLLVLNYPTYVFERWQGTLLMYA,57900
5,DQCDITPEMRKEYNIDGADKANNPELAMDWLLVHLLFRTLQLLPNMFRAWLFN,56200
6,KIHIVNMAQVIVLCIHRFLYGIIPLFEISTCIYFPLLVSLWHITYILFYIVMF,55200
7,ALKLLVDKVEDPKKNGPKFLKRAQLVVTGFNSQLKARSQRIGHFVNLLQVYLT,61600
8,VYMLTMESKKLLLRHVIDKLPGFLPTDLSGVTFLADWIHMQTGRIKKGTFNIV,59700
9,MEAKEGRPGNAFACERCRKHKVRCVPSDAPGICQRCQRARAPCIEHVARRRPA,31400
10,CLILVFADSWLFLTFTGVLLHGVGIELNKFTCSLGIFSCILLYTSSKVLIYFF,42800
11,PVIFRKRPTYLMFISVCLMYIYLFAVVYIRPYKLTRNNHVAIISWITIVIFLF,44400
12,KSKKTEAEAEEEEVTEEVKPEKKEKKEKKEKKEKKRKRDAEEDAAETKPAEKA,17600
13,YLAGPRVPFAPLSLPGIFLPTTWWNPGVFYFWTWRNHFYKTWGETVGFAPWFS,80500
14,HESDDFWRENASKLNEKDYEQLKLVPLHMFAPDWPLNCLLLRILVRLLSTEDP,30700
15,VCEEAVGCVRRAALEGFVDEDVRAANVLVRRAGERKERAGRAGRSRVVLVDLA,32600
16,GELYIYRLISSGLIFDTLWSLVTFGHPKGHPLPQYPCTVDMPDDFFRVRLVCV,65900
17,LANGLVVVLHTEAYDLPDNFASNCWFVIYYTNNSYLRFSSIYRYIFSIVIIVL,45800
18,GGRKRRKEREQQRERPDEEQSRPGSRDDEEGEKEGRGKGTKARKGAGGAAGKG,27600
19,AGNGWLLVGWFILHHFVVVSGILVAMLCLSFWDLWGSPGSPLLSRPWVAACFA,50500
20,QCYNYLRVILMVSVGQGLARSVHWCMFLYQQGLDYVLWYYRNTLLLVSFLIGW,62200
21,SEPELYVPQFKLDPVNGFWFPHFVKYIILILMLGLYVLIIFWTFMICKVVYRL,33300
22,MGPISFFFLFWRYYRLYCLFFVFFFFSTGLRWHDTLFHFLSFLLLGLPLLKRS,82100
23,TKLCTIGINCIFIIWHIADILIESPSHLPDIFTVFNVIISCSLFLLLFVYFVY,27600
24,DKSSGEEGSRKKRKRVSDNGEEDKELEKSKSKDRKKKGKRRDPAEDGAERPAT,41400
25,MARAKPTRIVESDEDDSDSGQLSSAPAKRKAGSEDANPAAKRARTASAKQKQL,63000
